Columns and labels:
[1] = target: the molecule itself; assay: cross-linking; disulfide cross-linking of engineered cysteines; 1 mM tetrathionate, 1-2 h, room temperature, 50 mM Tris pH 7.5 + 5% glycerol, no nucleotide, PAN at or below 0.25 mg/ml; desalted on G50, non-reducing SDS-PAGE, Coomassie, densitometry of monomers vs. dimers
[2] = target: the molecule itself; assay: native gel or EMSA; native-PAGE of oxidized PAN cysteine mutants

B1: PAN 80C (enzyme, Methanococcus jannaschii, UniProt Q58576 1-430, looked up)
chain: MVFEEFISTELKKEKKAFTEEFKEEKEINDNSNLKNDLLKEELQEKARIAELESRILKLELEKKELERENLQLMKENEICRRELDRMRVPPLIVGTVVDKVGERKVVVKSSTGPSFLVNVSHFVNPDDLAPGKRVCLNQQTLTVVDVLPENKDYRAKAMEVDERPNVRYEDIGGLEKQMQEIREVVELPLKHPELFEKVGIEPPKGILLYGPPGTGKTLLAKAVATETNATFIRVVGSELVKKFIGEGASLVKDIFKLAKEKAPSIIFIDEIDAIAAKRTDALTGGDREVQRTLMQLLAEMDGFDARGDVKIIGATNRPDILDPAILRPGRFDRIIEVPAPDEKGRLEILKIHTRKMNLAEDVNLEEIAKMTEGCVGAELKAICTEAGMNAIRELRDYVTMDDFRKAVEKIMEKKKVKVKEPAHLDVLYR
notes: Expressed from pRSETA; no tag named; source: E. coli BL21-DE3-RIL, purified (heat precipitation, anion exchange, size exclusion)
[1]
  binding result: binds

B2: PAN 66C (enzyme, Methanococcus jannaschii, UniProt Q58576 1-430, looked up)
chain: MVFEEFISTELKKEKKAFTEEFKEEKEINDNSNLKNDLLKEELQEKARIAELESRILKLELEKKECERENLQLMKENEILRRELDRMRVPPLIVGTVVDKVGERKVVVKSSTGPSFLVNVSHFVNPDDLAPGKRVCLNQQTLTVVDVLPENKDYRAKAMEVDERPNVRYEDIGGLEKQMQEIREVVELPLKHPELFEKVGIEPPKGILLYGPPGTGKTLLAKAVATETNATFIRVVGSELVKKFIGEGASLVKDIFKLAKEKAPSIIFIDEIDAIAAKRTDALTGGDREVQRTLMQLLAEMDGFDARGDVKIIGATNRPDILDPAILRPGRFDRIIEVPAPDEKGRLEILKIHTRKMNLAEDVNLEEIAKMTEGCVGAELKAICTEAGMNAIRELRDYVTMDDFRKAVEKIMEKKKVKVKEPAHLDVLYR
notes: as for B1
[1]
  binding result: binds

B3: PAN 73+66C (enzyme, Methanococcus jannaschii, UniProt Q58576 1-430, looked up)
chain: MVFEEFISTELKKEKKAFTEEFKEEKEINDNSNLKNDLLKEELQEKARIAELESRILKLELEKKECERENLQCMKENEILRRELDRMRVPPLIVGTVVDKVGERKVVVKSSTGPSFLVNVSHFVNPDDLAPGKRVCLNQQTLTVVDVLPENKDYRAKAMEVDERPNVRYEDIGGLEKQMQEIREVVELPLKHPELFEKVGIEPPKGILLYGPPGTGKTLLAKAVATETNATFIRVVGSELVKKFIGEGASLVKDIFKLAKEKAPSIIFIDEIDAIAAKRTDALTGGDREVQRTLMQLLAEMDGFDARGDVKIIGATNRPDILDPAILRPGRFDRIIEVPAPDEKGRLEILKIHTRKMNLAEDVNLEEIAKMTEGCVGAELKAICTEAGMNAIRELRDYVTMDDFRKAVEKIMEKKKVKVKEPAHLDVLYR
notes: as for B1
[1]
  binding result: binds

B4: PAN 87+73C (enzyme, Methanococcus jannaschii, UniProt Q58576 1-430, looked up)
chain: MVFEEFISTELKKEKKAFTEEFKEEKEINDNSNLKNDLLKEELQEKARIAELESRILKLELEKKELERENLQCMKENEILRRELDRCRVPPLIVGTVVDKVGERKVVVKSSTGPSFLVNVSHFVNPDDLAPGKRVCLNQQTLTVVDVLPENKDYRAKAMEVDERPNVRYEDIGGLEKQMQEIREVVELPLKHPELFEKVGIEPPKGILLYGPPGTGKTLLAKAVATETNATFIRVVGSELVKKFIGEGASLVKDIFKLAKEKAPSIIFIDEIDAIAAKRTDALTGGDREVQRTLMQLLAEMDGFDARGDVKIIGATNRPDILDPAILRPGRFDRIIEVPAPDEKGRLEILKIHTRKMNLAEDVNLEEIAKMTEGCVGAELKAICTEAGMNAIRELRDYVTMDDFRKAVEKIMEKKKVKVKEPAHLDVLYR
notes: Expressed from pRSETA; no tag named; also called PAN 87C+73C; source: E. coli BL21-DE3-RIL, purified (heat precipitation, anion exchange, size exclusion)
[2]
  stoichiometry N: 6

B5: PAN 87+73+59C triple mutant (enzyme, Methanococcus jannaschii, UniProt Q58576 1-430, looked up)
chain: MVFEEFISTELKKEKKAFTEEFKEEKEINDNSNLKNDLLKEELQEKARIAELESRILKCELEKKELERENLQCMKENEILRRELDRCRVPPLIVGTVVDKVGERKVVVKSSTGPSFLVNVSHFVNPDDLAPGKRVCLNQQTLTVVDVLPENKDYRAKAMEVDERPNVRYEDIGGLEKQMQEIREVVELPLKHPELFEKVGIEPPKGILLYGPPGTGKTLLAKAVATETNATFIRVVGSELVKKFIGEGASLVKDIFKLAKEKAPSIIFIDEIDAIAAKRTDALTGGDREVQRTLMQLLAEMDGFDARGDVKIIGATNRPDILDPAILRPGRFDRIIEVPAPDEKGRLEILKIHTRKMNLAEDVNLEEIAKMTEGCVGAELKAICTEAGMNAIRELRDYVTMDDFRKAVEKIMEKKKVKVKEPAHLDVLYR
notes: Expressed from pRSETA; no tag named; also called PAN 87C+73C+59C; source: E. coli BL21-DE3-RIL, purified (heat precipitation, anion exchange, size exclusion)
[1]
  percent cross-linked: 74%

B6: PAN 87+80C (enzyme, Methanococcus jannaschii, UniProt Q58576 1-430, looked up)
chain: MVFEEFISTELKKEKKAFTEEFKEEKEINDNSNLKNDLLKEELQEKARIAELESRILKLELEKKELERENLQLMKENEICRRELDRCRVPPLIVGTVVDKVGERKVVVKSSTGPSFLVNVSHFVNPDDLAPGKRVCLNQQTLTVVDVLPENKDYRAKAMEVDERPNVRYEDIGGLEKQMQEIREVVELPLKHPELFEKVGIEPPKGILLYGPPGTGKTLLAKAVATETNATFIRVVGSELVKKFIGEGASLVKDIFKLAKEKAPSIIFIDEIDAIAAKRTDALTGGDREVQRTLMQLLAEMDGFDARGDVKIIGATNRPDILDPAILRPGRFDRIIEVPAPDEKGRLEILKIHTRKMNLAEDVNLEEIAKMTEGCVGAELKAICTEAGMNAIRELRDYVTMDDFRKAVEKIMEKKKVKVKEPAHLDVLYR
notes: as for B1
[1]
  binding result: binds

B7: PAN 80+66C (enzyme, Methanococcus jannaschii, UniProt Q58576 1-430, looked up)
chain: MVFEEFISTELKKEKKAFTEEFKEEKEINDNSNLKNDLLKEELQEKARIAELESRILKLELEKKECERENLQLMKENEICRRELDRMRVPPLIVGTVVDKVGERKVVVKSSTGPSFLVNVSHFVNPDDLAPGKRVCLNQQTLTVVDVLPENKDYRAKAMEVDERPNVRYEDIGGLEKQMQEIREVVELPLKHPELFEKVGIEPPKGILLYGPPGTGKTLLAKAVATETNATFIRVVGSELVKKFIGEGASLVKDIFKLAKEKAPSIIFIDEIDAIAAKRTDALTGGDREVQRTLMQLLAEMDGFDARGDVKIIGATNRPDILDPAILRPGRFDRIIEVPAPDEKGRLEILKIHTRKMNLAEDVNLEEIAKMTEGCVGAELKAICTEAGMNAIRELRDYVTMDDFRKAVEKIMEKKKVKVKEPAHLDVLYR
notes: as for B1
[2]
  stoichiometry N: 6
[1]
  percent cross-linked: 72%

B8: PAN 73C (enzyme, Methanococcus jannaschii, UniProt Q58576 1-430, looked up)
chain: MVFEEFISTELKKEKKAFTEEFKEEKEINDNSNLKNDLLKEELQEKARIAELESRILKLELEKKELERENLQCMKENEILRRELDRMRVPPLIVGTVVDKVGERKVVVKSSTGPSFLVNVSHFVNPDDLAPGKRVCLNQQTLTVVDVLPENKDYRAKAMEVDERPNVRYEDIGGLEKQMQEIREVVELPLKHPELFEKVGIEPPKGILLYGPPGTGKTLLAKAVATETNATFIRVVGSELVKKFIGEGASLVKDIFKLAKEKAPSIIFIDEIDAIAAKRTDALTGGDREVQRTLMQLLAEMDGFDARGDVKIIGATNRPDILDPAILRPGRFDRIIEVPAPDEKGRLEILKIHTRKMNLAEDVNLEEIAKMTEGCVGAELKAICTEAGMNAIRELRDYVTMDDFRKAVEKIMEKKKVKVKEPAHLDVLYR
notes: as for B1
[1]
  binding result: binds

B9: PAN 80+59C (enzyme, Methanococcus jannaschii, UniProt Q58576 1-430, looked up)
chain: MVFEEFISTELKKEKKAFTEEFKEEKEINDNSNLKNDLLKEELQEKARIAELESRILKCELEKKELERENLQLMKENEICRRELDRMRVPPLIVGTVVDKVGERKVVVKSSTGPSFLVNVSHFVNPDDLAPGKRVCLNQQTLTVVDVLPENKDYRAKAMEVDERPNVRYEDIGGLEKQMQEIREVVELPLKHPELFEKVGIEPPKGILLYGPPGTGKTLLAKAVATETNATFIRVVGSELVKKFIGEGASLVKDIFKLAKEKAPSIIFIDEIDAIAAKRTDALTGGDREVQRTLMQLLAEMDGFDARGDVKIIGATNRPDILDPAILRPGRFDRIIEVPAPDEKGRLEILKIHTRKMNLAEDVNLEEIAKMTEGCVGAELKAICTEAGMNAIRELRDYVTMDDFRKAVEKIMEKKKVKVKEPAHLDVLYR
notes: as for B1
[1]
  binding result: binds

B10: PAN 80+73C (enzyme, Methanococcus jannaschii, UniProt Q58576 1-430, looked up)
chain: MVFEEFISTELKKEKKAFTEEFKEEKEINDNSNLKNDLLKEELQEKARIAELESRILKLELEKKELERENLQCMKENEICRRELDRMRVPPLIVGTVVDKVGERKVVVKSSTGPSFLVNVSHFVNPDDLAPGKRVCLNQQTLTVVDVLPENKDYRAKAMEVDERPNVRYEDIGGLEKQMQEIREVVELPLKHPELFEKVGIEPPKGILLYGPPGTGKTLLAKAVATETNATFIRVVGSELVKKFIGEGASLVKDIFKLAKEKAPSIIFIDEIDAIAAKRTDALTGGDREVQRTLMQLLAEMDGFDARGDVKIIGATNRPDILDPAILRPGRFDRIIEVPAPDEKGRLEILKIHTRKMNLAEDVNLEEIAKMTEGCVGAELKAICTEAGMNAIRELRDYVTMDDFRKAVEKIMEKKKVKVKEPAHLDVLYR
notes: as for B1
[1]
  binding result: binds

B11: PAN-M87C (proteasome-activating nucleotidase, M87C mutant) (enzyme, Methanococcus jannaschii, UniProt Q58576 1-430, looked up)
chain: MVFEEFISTELKKEKKAFTEEFKEEKEINDNSNLKNDLLKEELQEKARIAELESRILKLELEKKELERENLQLMKENEILRRELDRCRVPPLIVGTVVDKVGERKVVVKSSTGPSFLVNVSHFVNPDDLAPGKRVCLNQQTLTVVDVLPENKDYRAKAMEVDERPNVRYEDIGGLEKQMQEIREVVELPLKHPELFEKVGIEPPKGILLYGPPGTGKTLLAKAVATETNATFIRVVGSELVKKFIGEGASLVKDIFKLAKEKAPSIIFIDEIDAIAAKRTDALTGGDREVQRTLMQLLAEMDGFDARGDVKIIGATNRPDILDPAILRPGRFDRIIEVPAPDEKGRLEILKIHTRKMNLAEDVNLEEIAKMTEGCVGAELKAICTEAGMNAIRELRDYVTMDDFRKAVEKIMEKKKVKVKEPAHLDVLYR
notes: Expressed from pRSETA; The fraction F1 after partial trypsin proteolysis is called full-length or near full length; also called PAN-87C; M87C PAN; source: E. coli BL21-DE3-RIL, purified (heat precipitation, anion exchange, size exclusion)
[2]
  stoichiometry N: 6

B12: PAN 87+59C (enzyme, Methanococcus jannaschii, UniProt Q58576 1-430, looked up)
chain: MVFEEFISTELKKEKKAFTEEFKEEKEINDNSNLKNDLLKEELQEKARIAELESRILKCELEKKELERENLQLMKENEILRRELDRCRVPPLIVGTVVDKVGERKVVVKSSTGPSFLVNVSHFVNPDDLAPGKRVCLNQQTLTVVDVLPENKDYRAKAMEVDERPNVRYEDIGGLEKQMQEIREVVELPLKHPELFEKVGIEPPKGILLYGPPGTGKTLLAKAVATETNATFIRVVGSELVKKFIGEGASLVKDIFKLAKEKAPSIIFIDEIDAIAAKRTDALTGGDREVQRTLMQLLAEMDGFDARGDVKIIGATNRPDILDPAILRPGRFDRIIEVPAPDEKGRLEILKIHTRKMNLAEDVNLEEIAKMTEGCVGAELKAICTEAGMNAIRELRDYVTMDDFRKAVEKIMEKKKVKVKEPAHLDVLYR
notes: as for B1
[1]
  binding result: binds

— publication PMC6006169, “Conformational switching in the coiled-coil domains of a proteasomal ATPase regulates substrate processing” (Nature Communications, 2018)
